A word on the Kd: it is the concentration at which binding is half-saturated.

For this assay, the target named is wild-type SF162 gp120 (HIV-1 SF162). Nature of the assay: SPR. On the technique in general: SPR reads the build-up and loss of mass on a sensor chip optically.

B1: mAb VRC01 (antibody, V domains shown)
VH: QVQLVQSGGQMKKPGESMRISCRASGYEFIDCTLNWIRLAPGKRPEWMGWLKPRGGAVNYARPLQGRVTMTRDVYSDTAFLELRSLTVDDTAVYFCTRGKNCDYNWDFEHWGRGTPVIVSS
VL: EIVLTQSPGTLSLSPGETAIISCRTSQYGSLAWYQQRPGQAPRLVIYSGSTRAAGIPDRFSGSRWGPDYNLTISNLESGDFGVYYCQQYEFFGQGTKVQVD
B1 yielded a dissociation constant (Kd) of 2.08 nM.

The values are drawn from PMC3797752 (2013).
